Reference: publication PMC9002095 (2022)

Tests used:
human CD47 = human CD47 (human, UniProt Q08722 19-323); test: SPR
BSA = BSA (bovine, UniProt P02769 25-607); test: ELISA
BSA, sequence (P02769 25-607): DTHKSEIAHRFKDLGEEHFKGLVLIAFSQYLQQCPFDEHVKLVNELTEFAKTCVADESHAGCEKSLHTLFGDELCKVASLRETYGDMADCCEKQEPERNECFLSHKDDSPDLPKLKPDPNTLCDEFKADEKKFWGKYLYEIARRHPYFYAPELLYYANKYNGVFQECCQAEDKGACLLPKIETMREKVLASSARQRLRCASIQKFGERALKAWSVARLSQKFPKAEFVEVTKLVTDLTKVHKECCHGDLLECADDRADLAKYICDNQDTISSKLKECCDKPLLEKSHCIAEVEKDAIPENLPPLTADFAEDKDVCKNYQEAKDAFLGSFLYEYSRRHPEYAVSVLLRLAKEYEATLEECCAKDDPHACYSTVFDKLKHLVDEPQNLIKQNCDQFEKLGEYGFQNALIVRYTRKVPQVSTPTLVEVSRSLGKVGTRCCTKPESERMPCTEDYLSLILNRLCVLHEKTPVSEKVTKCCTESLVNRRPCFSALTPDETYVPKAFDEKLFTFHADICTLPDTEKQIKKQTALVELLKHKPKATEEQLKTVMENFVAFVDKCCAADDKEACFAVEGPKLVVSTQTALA

human CD47, sequence (Q08722 19-323): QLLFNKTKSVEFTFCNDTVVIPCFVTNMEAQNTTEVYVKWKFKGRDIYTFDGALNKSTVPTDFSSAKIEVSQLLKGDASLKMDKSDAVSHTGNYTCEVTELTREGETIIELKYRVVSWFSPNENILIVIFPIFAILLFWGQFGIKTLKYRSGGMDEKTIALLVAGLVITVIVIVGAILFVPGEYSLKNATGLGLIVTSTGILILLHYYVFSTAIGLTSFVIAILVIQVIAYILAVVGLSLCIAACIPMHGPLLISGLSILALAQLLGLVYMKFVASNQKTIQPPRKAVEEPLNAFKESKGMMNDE

koff (human CD47) [s⁻¹]	Kd (BSA) [nM]	Binder
0.00958	56.8	TKKTLRT–SIRPαFc conjugate (Fc fusion, free amino groups joined through Sulfo-SMCC to the cysteine of the peptide TKKTLRTC; one or two peptides on one SIRPαFc (MALDI-TOF-MS); sites not told | sulfhydryl of the C-terminal cysteine joined to the maleimide group of Sulfo-SMCC) chain 1: EEELQVIQPDKSVLVAAGETATLRCTATSLIPVGPIQWFRGAGPGRELIYNQKEGHFPRVTTVSDLTKRNNMDFSIRIGNITPADAGTYYCVKFRKGSPDDVEFKSG chain 2: TKKTLRTC
0.00727	4.25	human SIRPαFc fusion protein (Fc fusion) EEELQVIQPDKSVLVAAGETATLRCTATSLIPVGPIQWFRGAGPGRELIYNQKEGHFPRVTTVSDLTKRNNMDFSIRIGNITPADAGTYYCVKFRKGSPDDVEFKSG
